We go through one substance from article PMC8580882.

This assay deals with Cyclosorus parasiticus chalcone synthase 1 (CpCHS1) (Cyclosorus parasiticus). Kind of assay: crystal structure; sitting-drop vapor diffusion at 20°C; 0.2 M sodium chloride, 0.1 M Tris-HCl pH 8.0, 20% w/v PEG 4000; apo form at 1.9 Å, complexes with naringenin and with naringenin + CoA at 2.4 Å; molecular replacement with 6DXB.

For “Cyclosorus parasiticus chalcone synthase 1 (CpCHS1) (enzyme)”, the stoichiometry N worked out at 2.
